In the supplement of paper PMC10567573:

B1: TMEM175 (parent)
chain: ALLHQAETLQPSVWFGGREHVLMF
B2: ZNF649 (parent)
chain: LTEHKRIHTGKKPHVCSLCGKAFY

Variants of: B1
Assay: protein stability index of a GFP-peptide fusion (GPS, HEK-293T) (PSI 1-6); higher = more stable
Settings: c terminus: a fixed tail appended
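Note: lentivirally expressed fusions sorted by FACS into six bins by GFP to DsRed ratio, PSI derived from sequencing read proportions per bin multiplied by bin number.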

Protein stability index of substitutions, site by site:
M23: R 1.03, P 1.35, G 3.51, K 1.74, I 2.59, E 3.67, D 1.04, V 1.27, Q 1.84, L 3.66, N 1.58, A 1.2, H 2.39, F 1.67
V21: S 1.52, D 1.77, W 1.57, K 2.1, G 2.89, E 1.53, Q 1.69, H 2.89, P 2.11, M 2.55, R 2.18, L 2.41, I 1.53, N 2.02, Y 1.7
L22: N 2.19, V 3.06, K 1.94, C 3.13, Y 2.94, S 2.06, F 2.44, Q 1.9, E 2.09, M 2.03, P 2.05, G 1.77, R 1.93, A 1.1, H 2.68, T 1.78
F24: D 2.69, Q 2.4, R 2.56, S 2.56, G 1.47, N 3.21, P 1.54, K 2.5, L 2.21, T 2, W 2.13, E 2.15, M 3.11, H 2.15

Variants of: B2
Assay: as above
Settings: c terminus: a fixed tail appended

Protein stability index: each site, then its substitutions
I7: M 2.4, T 2.71, C 2.6, V 2.58, H 2.16, K 1.98, R 3.93, G 2.78, E 2.71, S 3.72, F 2.18, L 3.11, W 2.5, D 2.31, N 2.85, P 2.38, Q 2.73, A 2.52
K11: Q 3.01, P 2.76, Y 2.5, R 1.76, W 3.42, D 3.21, A 2.32, L 2.96, N 2.35, E 3.4, F 2.79, S 2.43, G 2.54, C 2.43, V 2.88, H 2.23, I 2.77, M 2.56, T 2.62
T9: D 3.3, S 3.36, M 2.85, K 2.35, C 2.32, Y 2.3, Q 2.31, A 2.04, P 2.85, V 3.62, I 1.87, E 2.98, H 3.04, R 2.45, F 2.8, G 2.8, W 3.49, L 2.51
K5: A 3.06, N 3.39, S 2.3, P 1.15, E 3.03, D 3.35, M 2.79, Q 2.79, R 2.63, C 4.3, T 2.88, V 2.48, L 2.23, I 3, W 3.18, F 2.25
H4: D 2.9, C 2.78, F 2.33, E 3.02, V 1.94, Q 3.31, M 2.47, R 2.24, G 2.4, Y 2.36, L 2.11, W 2.78, I 2.19, S 2.58, K 2.28, T 2.52, N 2.84, P 2.43, A 2.22
P13: M 3.06, G 2.48, T 3.55, N 2.15, E 2.96, R 3.48, H 2.29, S 2.33, I 2.84, Q 2.26, D 1.8, F 2.23, L 2.32, K 2.03, Y 2.88, V 3.06
H14: S 2.25, W 3.52, G 2.22, A 3.54, M 2.86, P 3.18, Y 2.63, C 2.78, L 2.71, Q 2.97, V 1.96, F 2.4, R 2.2, N 1.97, D 2.34, T 2.17
T2: Q 2.58, Y 2.31, K 2.26, S 3, D 3.12, V 2.27, M 2.16, W 2, G 2.25, C 3.94, F 1.7, N 2.32, H 2.46, E 3.01, A 2.57, R 2.78, I 2.04, P 2.32, L 2.09
G10: I 2.49, A 2.78, S 2.19, H 2.16, P 3.22, L 2.27, W 2.97, T 2.83, N 1.98, Y 2.45, V 2.28, M 3.35, Q 2.28, K 2.96, C 3.76, D 2.63, E 3.6, F 3.73
C16: D 3.15, E 3.62, G 2.01, H 2.71, A 2.94, K 2.32, I 2.18, F 1.48
K12: P 2.31, D 3.14, W 2.27, M 2.28, H 1.97, G 3.6, Q 2.39, A 2.44, T 1.79, C 2.81, E 2.75, R 2.61, N 3.3, S 1.78, I 2.5, F 2.32, V 3.42, Y 2.32, L 2.5
E3: K 2.93, A 2.47, R 1.86, C 2.38, L 1.15, W 1.71, Q 2.32, G 1.79, H 1.68, Y 2.89, M 1.89, D 2.71, V 2.23, I 1.96, P 2.45, N 2.22, T 1.67, F 2.31, S 2.59
H8: K 2.14, L 2.29, P 4.21, D 2.67, A 2.86, G 2.13, M 2.49, Y 2.89, E 3.25, I 2.17, T 2.58, W 2.06, F 2.71, C 3.2, R 4.2, V 2.18, Q 3.1
V15: H 2.34, M 2.98, L 1.89, I 2.69, E 2.56, P 2.71, G 2.56, Y 2.55, Q 2.35, K 2.9, C 2.6, D 2.93, T 2.46, N 2.05, F 2.42, A 1.54, S 2.23, R 2.32, W 1.83
L1: K 3.22, G 3.19, R 3.27, S 2.81, H 2.97, I 2.18, V 2.57, N 2.81, A 3.24, Q 3.02, P 3.05, E 2.87, C 3.22, D 3.45, M 2.3, Y 3.44, T 2.58, F 2.18, W 2.17
R6: E 3.42, I 2.71, F 2.33, T 3.08, S 2.25, Y 2.5, C 4.05, W 2.75, N 2.58, L 2.14, D 2.93, H 3.63, G 1.94, Q 4.11, K 2.33
